[ ]: non-standard residue; d: D form. Hyp = O=C(O)[C@@H]1C[C@@H](O)CN1
Target: T1, Recombinant human OSCAR-Fc chimera (human)
T1 construct: extracellular region of human osteoclast-associated receptor (OSCAR), Asp19-Asn229 of NP_573399; In the functional rows the OSCAR of the test system is the endogenous mouse receptor of Raw 264.7 cells, not this construct; also called osteoclast-associated receptor; source: bought: R&D Systems, Bio-Techne, 9955-OS
Test: SPR; Biacore T200, CM5 chip; OSCAR-Fc immobilised by amine coupling to 6880 RU; peptides flowed as analytes at 30 µL/min, 25 °C, 10 mM PBS, 150 mM NaCl, 0.05% Tween20, pH 7.4; OP1_Hyp 5000-0 nM (Langmuir 1:1 kinetic fit), OP1_Pro 40,000-0 nM (steady-state analysis)
Settings: both partners purified

Binder | Kd
Ac-GP[Hyp]GP[Hyp]GP[Hyp]GA[Hyp]GPAGFAGP[Hyp]GP[Hyp]GP[Hyp]-NH2 (SMILES CC(=O)NCC(=O)N1CCC[C@H]1C(=O)N1C[C@H](O)C[C@H]1C(=O)NCC(=O)N1CCC[C@H]1C(=O)N1C[C@H](O)C[C@H]1C(=O)NCC(=O)N1CCC[C@H]1C(=O)N1C[C@H](O)C[C@H]1C(=O)NCC(=O)N[C@@H](C)C(=O)N1C[C@H](O)C[C@H]1C(=O)NCC(=O)N1CCC[C@H]1C(=O)N[C@@H](C)C(=O)NCC(=O)N[C@@H](Cc1ccccc1)C(=O)N[C@@H](C)C(=O)NCC(=O)N1CCC[C@H]1C(=O)N1C[C@H](O)C[C@H]1C(=O)NCC(=O)N1CCC[C@H]1C(=O)N1C[C@H](O)C[C@H]1C(=O)NCC(=O)N1CCC[C@H]1C(=O)N1C[C@H](O)C[C@H]1C(N)=O) [OP1_Hyp] | 2.63 µM
Ac-GP[Hyp]GP[Hyp]GP[Hyp]GAPGPAGFAGP[Hyp]GP[Hyp]GP[Hyp]-NH2 (SMILES CC(=O)NCC(=O)N1CCC[C@H]1C(=O)N1C[C@H](O)C[C@H]1C(=O)NCC(=O)N1CCC[C@H]1C(=O)N1C[C@H](O)C[C@H]1C(=O)NCC(=O)N1CCC[C@H]1C(=O)N1C[C@H](O)C[C@H]1C(=O)NCC(=O)N[C@@H](C)C(=O)N1CCC[C@H]1C(=O)NCC(=O)N1CCC[C@H]1C(=O)N[C@@H](C)C(=O)NCC(=O)N[C@@H](Cc1ccccc1)C(=O)N[C@@H](C)C(=O)NCC(=O)N1CCC[C@H]1C(=O)N1C[C@H](O)C[C@H]1C(=O)NCC(=O)N1CCC[C@H]1C(=O)N1C[C@H](O)C[C@H]1C(=O)NCC(=O)N1CCC[C@H]1C(=O)N1C[C@H](O)C[C@H]1C(N)=O) [OP1_Pro] | 19.5 µM

Source: article PMC10779143, “Collagen-like Osteoclast-Associated Receptor (OSCAR)-Binding Motifs Show a Co-Stimulatory Effect on Osteoclastogenesis in a Peptide Hydrogel System” (International Journal of Molecular Sciences, 2023)
